The text below walks through data of PMC6752053 (Cell, 2019).

This data set concerns the molecule itself. Briefly: X-ray diffraction of polymer pellets.

B1: His6-Pbp1_LC (C-terminal low-complexity region of Pbp1, a.a.570-722) (domain or fragment, S. cerevisiae, UniProt P53297 570-722, looked up)
chain: NSMGNAVPGMNPAMGMNMGGMMGFPMGGPSASPNPMMNGFAAGSMGMYMPFQPQPMFYHPSMPQMMPVMGSNGAEEGGGNISPHVPAGFMAAGPGAPMGAFGYPGGIPFQGMMGSGPSGMPANGSAMHSHGHSRNYHQTSHHGHHNSSTSGHK
For the protein B1, the binding result is “binds”.
